In patent publication US9156883B2, “Binding molecules for human factor VIII and factor VIII-like proteins” (DYAX CORP., priority 1999, dated 2015):
Positions of bridges follow the written chain, without caps; N, C: chain ends. No end group written: not given here. *: point of attachment. NHNH2 = NN*

What was measured:
REFACTO® = target: T1, REFACTO® (Homo sapiens, UniProt P00451); test: Comparative batch binding and elution of REFACTO® with regenerated immobilized ligands; conditions: target REFACTO® 100 U/ml in modified Buffer 1
T1 construct: amino acids 1-743 and 1638 through 2332 of human factor VIII; purchased Genetics Institute, Inc. (Cambridge, Mass.)
T1 sequence (P00451 20-762): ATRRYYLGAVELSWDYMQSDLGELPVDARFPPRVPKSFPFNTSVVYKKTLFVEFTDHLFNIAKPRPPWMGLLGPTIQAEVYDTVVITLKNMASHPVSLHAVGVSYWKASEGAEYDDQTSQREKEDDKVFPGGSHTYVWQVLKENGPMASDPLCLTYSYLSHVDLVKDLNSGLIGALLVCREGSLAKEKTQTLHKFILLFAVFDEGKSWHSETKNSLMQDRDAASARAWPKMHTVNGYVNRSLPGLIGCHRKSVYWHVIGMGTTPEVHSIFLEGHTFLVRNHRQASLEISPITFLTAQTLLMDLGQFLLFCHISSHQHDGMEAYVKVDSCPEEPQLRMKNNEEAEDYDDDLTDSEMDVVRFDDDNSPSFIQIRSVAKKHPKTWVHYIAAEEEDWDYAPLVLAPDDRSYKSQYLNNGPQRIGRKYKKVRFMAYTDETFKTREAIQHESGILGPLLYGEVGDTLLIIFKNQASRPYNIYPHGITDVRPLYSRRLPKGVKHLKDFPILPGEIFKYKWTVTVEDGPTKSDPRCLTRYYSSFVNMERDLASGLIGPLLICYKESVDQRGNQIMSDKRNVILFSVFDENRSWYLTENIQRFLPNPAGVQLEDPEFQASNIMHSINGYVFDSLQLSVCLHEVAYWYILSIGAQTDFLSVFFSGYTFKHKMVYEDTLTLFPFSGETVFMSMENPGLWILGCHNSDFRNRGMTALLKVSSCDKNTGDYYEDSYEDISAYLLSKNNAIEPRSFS
T1 sequence (P00451 1657-2351): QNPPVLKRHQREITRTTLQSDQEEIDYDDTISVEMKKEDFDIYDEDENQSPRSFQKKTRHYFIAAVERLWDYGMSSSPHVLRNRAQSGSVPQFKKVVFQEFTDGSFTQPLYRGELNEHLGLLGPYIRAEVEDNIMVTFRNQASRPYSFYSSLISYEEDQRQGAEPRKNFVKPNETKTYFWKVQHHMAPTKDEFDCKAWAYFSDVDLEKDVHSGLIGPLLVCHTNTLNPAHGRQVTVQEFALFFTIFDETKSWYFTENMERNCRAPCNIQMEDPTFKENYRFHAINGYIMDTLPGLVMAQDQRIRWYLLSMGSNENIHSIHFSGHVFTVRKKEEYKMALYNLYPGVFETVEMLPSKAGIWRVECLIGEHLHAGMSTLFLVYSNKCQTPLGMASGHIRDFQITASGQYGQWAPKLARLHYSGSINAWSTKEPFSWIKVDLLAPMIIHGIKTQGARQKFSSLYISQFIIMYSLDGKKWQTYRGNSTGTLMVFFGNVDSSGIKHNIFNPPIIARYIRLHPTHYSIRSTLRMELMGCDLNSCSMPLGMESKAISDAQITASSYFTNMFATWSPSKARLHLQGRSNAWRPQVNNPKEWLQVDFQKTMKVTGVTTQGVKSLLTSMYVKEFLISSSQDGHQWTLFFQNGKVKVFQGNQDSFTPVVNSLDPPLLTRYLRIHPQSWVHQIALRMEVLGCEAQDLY
From the text: A commercial ELISA kit (IMUBIND fVIII ELISA kit, Product #884, American, Inc., Greenwich, Conn.) developed to detect factor VIII was used according to the manufacturer's specifications in order to detect both the REFACTO® and the nhfVIII targets. The kit employs a sandwich ELISA assay in which the target is captured by an immobilized monoclonal antibody and the captured target is detected with a second monoclonal antibody-horseradish peroxidase (HRP) conjugate. Addition of the peroxidase substrate and its subsequent reaction with the HRP produces a blue color (detected at 630 nm) which changes to yellow (detected at 450 nm) on addition of the 0.5N sulfuric acid stop solution. Color response is calibrated with factor VIII standards provided by the manufacturer.
Following the pH 2 washes, the beads were washed once in PBS containing 0.05% azide and stored at 4° C.
A sample of nhfVIII was diluted to a final concentration of 100 U/ml by addition of 2.32 ml H2O, 180 μl 1M NH4OAc, pH 6.3 (to 72 mM), and 1 μl Tween 80 (to 0.04%). REFACTO® stock solution was diluted to 100 U/ml in a modified Buffer 1, in which the NaCl concentration was reduced from […] to 330 mM.
Immobilized peptides were tested for binding to nhFVIII in comparison with REFACTO®. […] Next, nhfVIII and REFACTO® solutions were mixed with regenerated affinity beads bearing the CS-454, CS-456, and CS-458 ligands in a comparative batch purification procedure.

[1] = target: T2, factor VIII-like polypeptide (REFACTO®) (Homo sapiens, UniProt P00451); test: Affinity chromatography capture and elution of REFACTO® on immobilized peptide columns; type: binding; conditions: bound material eluted in the presence of ethylene glycol
T2 construct: amino acids 1-743 and 1638 through 2332 of human factor VIII; purchased Genetics Institute, Inc. (Cambridge, Mass.)
T2 sequence (P00451 20-762): T1 sequence (P00451 20-762)
T2 sequence (P00451 1657-2351): T1 sequence (P00451 1657-2351)
Experimental: The candidate ligands were immobilized onto a formyl-substituted ethylene glycol-methacrylate chromatographic resin (Toyopearl Formyl 650-M, pore size of ˜1000 Å; TosoHaas, Montgomeryville, Pa.). The hydrazide-containing peptides were immobilized by facilitating hydrazone bond formation, the GI-1 and -2 peptides were immobilized via reductive amination using NaCNBH3. The amount of polypeptide immobilized on the solid support was determined by quantifying the amount of free polypeptide remaining in solution. The amount of ligand immobilized per ml of resin was in the range of 0.7-1.5 μmol for the hydrazine-immobilized peptides.
The nine peptides were evaluated by affinity chromatography for their ability to capture the REFACTO® described in Example I, under specific binding and release conditions.
The factor VIII-like polypeptide (REFACTO®) was diluted in SP Buffer to a concentration of 150 μg/ml. The affinity resins (˜350 μl) were each packed into glass columns, and approximately 150 μg of the factor VIII target was applied to the prepared affinity columns at a flow rate of 200 μl/minute (linear velocity of 170 cm/hour). […] Fractions were collected and the mass and activity of recovered factor VIII-like polypeptide was determined by reversed-phase HPLC and by enzymatic assay.
For the mass determination, a standard curve with REFACTO® (0-200 μg) was generated and the amount present in each fraction was calculated according to techniques well known in the art. Reversed-phase HPLC in the presence of 20 mM EDTA was used to disrupt the REFACTO® molecule into its component subunits, which were eluted with a gradient of acetonitrile/0.01% TFA. The activity assay was a Factor IX-, X-based assay. The results for each affinity resin are set forth below (Table 6).

Row | % of Total Recovered in: Eluate (REFACTO®) | % of Total Recovered in: Unbound (REFACTO®) | % of Total Recovered in: Wash (REFACTO®) | Substance | capture of the factor VIII target by the affinity resin (in words) [1]
1 | 27% | 59% | 14% | AEGTGDFCWVFAFDHCHDPGPEGGGS-NHNH2 (disulfide 8-16 (inferred)) [CS-458] | –
2 | – | – | – | AEGTGDFGCSWLFPCPFDPGPEGGGS-NHNH2 (disulfide 9-15 (inferred)) [CS-456] | captured virtually all of the factor VIII target applied
3 | – | – | – | AEGTGDHLCGAWFRPCDADPGPEGGGS-NHNH2 (disulfide 9-16 (inferred)) [CS-454] | captured virtually all of the factor VIII target applied
